# The nanobody polyreactivity screen of Harvey et al. (2022)
# Assay: yeast display, Sf9 membrane polyspecificity reagent, FACS + sequencing; frameworks hold sequencing errors
# Outline: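 Nanobodies came from a synthetic yeast display library in Saccharomyces cerevisiae BJ5465, induced with galactose for 36–48 hours and stained for 1 hour at 4 °C with 10% biotinylated, detergent-solubilized Sf9 membrane reagent. Cells were enriched on streptavidin microbeads and then FACS-sorted, with low and high (top ~1%) gates set on anti-HA fluorescence for expression and streptavidin fluorescence for reagent binding. Each polyreactivity label reflects the gate a clone came from. Genes were amplified by colony PCR, sequenced by MiSeq 2 × 250 and filtered by CDR length.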
row,Sequence,polyreactivity (PSR sort gate)
1,QVQLVESGGALVQAGGSLRLSCAASGRIFWDYVMGWYRQAPGKEREFVAAISLDGNITYYADSVKGRFTISRDNAKNTVYLQMNSLKPEDTAVFYCAADQYFFFRARGYDYWGQGTQVTVSS,low polyreactivity
2,QVQLVESGGALVQAGGSLRLSCAASGSIFDDNAMGWYRQAPGKERELVAAITGSGGRTYYADSVKGRFTISRDNAQNTVDLQMNSLKPEDTAVYYCAAQGAYNYFNAWYGYEYWGQGTQVTVSS,high polyreactivity
3,QVQLVESGGALVQAGGSLRLSCAASGSIFGFYMGWYRQAPGKERELVAAISGSGGNTYYADSVKGRFTISRDNAKNTVYLQMNSLKPEDTSVYYCAAERWDLWLLYDYWGQGTQVTVSS,high polyreactivity
4,QVQLVESGGALVQAGGSLRLSCAASGSIFIHYAMGWSRQAPGKERELVAAISRTGSTYYADSVKGRFTISRDNAKNTVYLQMNSLKPLDTAVYYCAKRISTRRYDFWGQGTQVTVSS,low polyreactivity
5,QVQLVESGGALVQAGGSLRLSCAASGSIFLFNTMGWYRQAPGKETELVAVISGGGITYYADSVKGRFTISRDNAKNTVYLQMNSLKPEDTAVYYCAADGGYWSQYDYWGQGTQVTVSS,low polyreactivity
6,QVQLVESGGALVQAGGSLRLSCAASGSIFSEYAMGWYRQAPGKERELVAAISRSGGTTYYADSVKGRFSISRDNAKNTVYLQMNSLKPEDTAVYYCAARYFRGSYPMGYWGQGTQVTVSS,high polyreactivity
7,QVQLVESGGALVQAGGSLRLSCAASGSIFTGYAMGWYRQAPGKERELVAAISSRGGSTYYADSVKGRFTISRDNATNTVYLQMNSLKPEDTAVYYCNAVYSGRFLRRDYWGQGTQVTVSS,high polyreactivity
8,QVQLVESGGALVQAGGSLRLSCAASGSIFVSNAMGWYRQAPGKERELVAAISQSGGSTYYADSVKGRFTISRDNAKNTVYLQMNSLKPEDTAVYYCATPIRSGFRIYDYWGQGTQVNVSS,low polyreactivity
9,QVQLVESGGALVQAGGSLRLSCAASGSTFAYNAMGWYRQAPVKERELVAAITWNGGDTYYADSVKGRFTISRDNAKNTVYLQMNSLKPEDTAVYYCAAEDTYYRDSDYWGQGTQVTVSS,low polyreactivity
10,QVQLVESGGALVQAGGSLRLSCAASGSTFFKYGMGWYRQAPGKERELDATISSRGGNTSYADSVKGRFTISRDNAKNTVYLQMNSLKPEDTAVYYCNAGGDEPVYGSGYDYWGQGTQVTVSS,low polyreactivity
11,QVQLVESGGALVQAGGSLRLSCAASGSTFKVYAMGWYRQAPGKERELVAAISFSGGTTYYADSVNGRFTISRDYAKNTVSLQRNSLKPEDTAVFYCAADGSTWYSYYYWGLGTQVTVSS,high polyreactivity
12,QVQLVESGGALVQAGGSLRLSCAASGSTFLGYTMGWYRQAPGKERELVAAITSSGGRTYYADSVKGRFTISRDNAKYTVYLQMNSLIPEDTAVYYCATREYYPYSTRYSISYDYWGQGTQVTVSS,high polyreactivity
13,QVQLVESGGALVQAGGSLRLSCAASGSTIRDYAMGWYRQAPRKERELVAVIDNSGGRTYYADSVKGRFTISRDNAKNTVYLQMNSLKPEDTAVYYCNAYAYPFRGGYWGQGTQVTVSS,high polyreactivity
14,QVQLVESGGALVQAGGSLRLSSAASGSIFGSNGIGSYRPAPGKERELVAAITRSGGSTRYADSVKGRFTISRDNAKNTVYLQMNSLKPEDTAVYYCAKYDTSTGYDYWGQGTQVTVSS,high polyreactivity
15,QVQLVESGGALVQAGGSLRLSSAASGSTFYLNAMGWYRQAPGKERELVAAITVSGGSTYYADSVKGRFTISRDNAKNTVYLQMNSLKPEDTAVYYCARELLSPTYQRWYYYWGQGTQVTVSS,low polyreactivity
16,QVQLVESGGALVQAGGSLRLTCAASGRTFYYYAKGWYRPAPGTERELVAAISCSGGRTYYADSVKGRFTISRDNANDTVYVPMNSLKPEDTAVFYCYAEPPSGYTVSSGGEMDYWGQGTQVTVSS,low polyreactivity
17,QVQLVESGGALVQAGGTRRLSCAASASTYPYAMGWYRQDPAKERELVAAITWSGGNTYFADSVKGRFTISRDNAKNSVYLQMNSMKPEDTAFYYCAALIGYRVFRYNYWGQGTQLTVSS,high polyreactivity
